Experimental data published in patent publication US12246067B2, “Neoantigens and uses thereof” (priority 2018, dated 2025).

Key:
[1] = test system: ovarian carcinoma patients; settings: poly-ICLC in combination with a NYESO-1 peptide vaccine (in addition to Montanide); phase 1 study; cited from earlier work
humans = settings: cited from earlier work
HLA-A02:01 [2] = biological target: T1, HLA-A02:01 (Homo sapiens, UniProt P04439, D140Y/D185E/D98H/E176V/E277Q/G131W/G231S/I119V/I121R/I166T/I218V/L300P/L318F/N151K/N90K/P208A/P217A/Q86G/Q94H/R138H/R169H/T345S); assay: Affinity of neoepitopes for the indicated HLA allele; format: binding; settings: HLA allele A02.01; mutant KRAS peptides (Example 9)
Protocol: (§1) Multiple peptides containing the neoepitopes in the table below were expressed or loaded onto antigen presenting cells (APCs). Mass spectrometry was then performed and the affinity of the neoepitopes for the indicated HLA alleles and stability of the neoepitopes with the HLA alleles was determined.

HLA-A02:01 [3] = biological target: T1, HLA-A02:01; assay: Stability of neoepitopes with the HLA allele; format: binding; settings: HLA allele A02.01; mutant KRAS peptides (Example 9)
Protocol: as §1

poly-ICLC
Patients showing induction of CD4+ and CD8+ T cell, as well as antibody responses to the peptide [1]: > 90% | CD4+ and CD8+ responses in humans (humans): can induce durable CD4^+ and CD8^+ responses

LVVVGADGV
Measured Affinity (HLA-A02:01 [2]): 977.4 nM | Measured stability (HLA-A02:01 [3]): 0.0 h

LVVVGACGV
Measured Affinity (HLA-A02:01 [2]): 667.1 nM | Measured stability (HLA-A02:01 [3]): 0.6 h

LVVVGAVGV
Measured Affinity (HLA-A02:01 [2]): 682.5 nM | Measured stability (HLA-A02:01 [3]): 0.6 h
